{"source": "paper doi:10.1101/2022.05.13.491770", "about": "(bioRxiv, 2022)", "key": {"[1]": {"target": "recombinant SARS-CoV-2 RBD (SARS-CoV-2, ancestral strain (assumed), UniProt P0DTC2)", "experiment": "BLI"}, "[2]": {"target": "SARS-CoV-2 WA.1 spike protein (V-PLEX COVID-19 Panel 24) (SARS-CoV-2 WA.1 (ancestral), UniProt P0DTC2, strain)", "experiment": "electrochemiluminescence multiplex binding assay"}}}
{"binder": "002-S21F2 full-length immunoglobulin G (IgG) (antibody, V domains shown) VH: EVQLVQSGAEVKKPGESLKISCKASGYNFAYYWIGWVRQMPGKGLEWMGIIYPGDSDTRYSPSFQGQVTISADKSISTAYLQWSSLKASDTAMYYCARGEMTAVFGDYWGQGTLVTVSS VL: DIQMTQSPSSLSASVGDRVTITCQASQDISNYLNWYQQKPGKAPKLLIYDASNLETGVPSRFSGSGSGTDFTLTISSLQPEDIATYYCQQYKILLTWTFGQGTKVEIK", "values": [{"measurement": "binding result", "setting": "[1]", "result": "binds"}, {"measurement": "binding result", "setting": "[2]", "result": "binds"}]}
